# The supplement of paper PMC10126150
# ± gives the standard deviation of the averaged measurements.
# Test system: ATP
# Experiment: switch fluorescence ratio, 500 uM ATP over buffer (Cy3 cluster intensity, sum of 5 cycles each) (fold (ratio)); higher = stronger signal-on switching upon ATP binding; sequences stand for … in TCGTCGGCAGCGTCAGATGTGTATAAGAGACAGTTTTTTTTTTTTTTTTTTTTTTTTT…TC
# Conditions: aptamer strand: ATP DNA aptamer (quencher-CACCTGGGGGAGTATTGCGGAGGAAGG + anchor), 100 nM annealed; ATP concentration: 500 uM
# In short: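 Between each of five buffer/ATP cycles, the flow-cell was stripped with NaOH and re-annealed. Each cycle imaged Cy3-labelled switching-strand clusters, annealed to 100 nM quencher-labelled ATP aptamer on a modified Illumina MiSeq flow-cell, first in selection buffer and then after 15 min with 500 uM ATP at 22 °C. The fluorescence ratio is summed target-cycle over summed buffer-cycle Cy3 intensity per cluster, averaged per switch-domain sequence, with clusters outside 100-1000 RFU excluded.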
# 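Further: ATP exposure 15 min at 22 °C before imaging.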
row,Sequence,switch fluorescence ratio
1,CGTCGGGGTG,1 ± 0.017
2,CGTTCCCGTG,0.9811 ± 0.0031
3,GAGGGGTAGG,0.977 ± 0.021
4,GTAAGGGAAA,1.02 ± 0.051
5,TTCAGCGATG,1.024 ± 0.0081
6,GAGATCGAGG,1.03 ± 0.017
7,GAAACAGTGT,0.9732 ± 0.0046
8,TTCGCGTTAG,1.23 ± 0.29
9,ATCATGTTAT,0.986 ± 0.011
10,AGTTGGGTCG,1.004 ± 0.0056
11,TGTAGCAGGG,1.12 ± 0.043
12,GTATTATTAA,1.05 ± 0.0015
13,GGGCTGACAG,1.035 ± 0.0012
14,TCGGACTTTT,1.04 ± 0.012
15,GATGTTGGAA,0.997 ± 0.034
16,ATTTTTCTTA,1.007 ± 0.0045
17,TAGGGCTGTG,0.995 ± 0.059
18,GGGGTGGTTG,0.986 ± 0.036
19,ATTAATGTGA,1 ± 0.031
20,TCGTTAGAGG,0.9718 ± 0.0073
21,TTTGATCAAG,1.021 ± 0.008
22,ATATTGTCAT,0.962 ± 0.015
23,TCGTTTACAC,1.01 ± 0.033
24,AGGAGGGTGG,1.02 ± 0.044
25,CTAATGGCTT,0.977 ± 0.033

row,Sequence,switch fluorescence ratio
1,ATGAGGGTTC,0.981 ± 0.044
2,CGTTTCGAAT,0.96 ± 0.027
3,GACCGAGGGG,0.989 ± 0.026
4,ACGGAGTTAC,1.84 ± 0.18
5,CGCGGGGCGG,1.02 ± 0.029
6,CCTTTATGGG,0.9952 ± 0.0095
7,TGGTGTGACA,0.995 ± 0.065
8,TCTGTTCA,1.005 ± 0.0075
9,GCGAAGGGGG,1.03 ± 0.067
10,GGGGGCACTC,0.986 ± 0.031
11,CATAACTAAA,1 ± 0.012
12,TAAAAAGCGG,1.01 ± 0.054
13,GGTTTTATAT,1.006 ± 0.0068
14,GTGGCCTGGA,1.01 ± 0.025
15,TCATAGACGG,0.987 ± 0.021
16,CGGGAGCCCA,1.02 ± 0.044
17,CAAAACGGTT,1.02 ± 0.048
18,TAGTTTCTAC,0.992 ± 0.033
19,GTAAGAGTGC,1.03 ± 0.026
20,AGCACGTATC,1.09 ± 0.059
21,CGCAGGATGG,1.05 ± 0.05
22,TAAGTAAATA,0.9762 ± 0.004
23,ACGAGGACAG,1.06 ± 0.0025
24,TAAGAGAGAA,0.986 ± 0.021
25,AGAAAAAAGT,1.03 ± 0.12

row,Sequence,switch fluorescence ratio
1,GTCGTTGCTA,1.01 ± 0.015
2,TTTTCGATTT,1.42 ± 1
3,CTGGAGGATA,1.12 ± 0.014
4,AAAGTGAAGG,0.996 ± 0.027
5,TAATAATTAA,0.992 ± 0.024
6,CTGGCCGTTT,1.016 ± 0.01
7,AATCATAGTA,1.011 ± 0.0089
8,CAGTTGTGGT,0.998 ± 0.011
9,TAGAAATGGG,1.19 ± 0.33
10,AAAGTTTTCC,1.08 ± 0.074
11,TCGTGAAGGG,0.979 ± 0.051
12,GGGGATTAGG,0.988 ± 0.015
13,AATATTTCGG,0.99 ± 0.0092
14,AACTCATTCA,1.02 ± 0.025
15,TTAAATGGCA,0.993 ± 0.033
16,CGAGATCGAC,0.97 ± 0.012
17,GCGCTGACGT,0.9932 ± 0.0052
18,TTTTTATTGC,1 ± 0.035
19,TATCTTAAAT,0.997 ± 0.028
20,TCGATACGAT,0.994 ± 0.018
21,CACTTTGGTT,1.02 ± 0.011
22,GTTGGGGGAT,0.986 ± 0.038
23,CGGTAGTTAC,1.25 ± 0.059
24,GGAACCCAGA,0.988 ± 0.021
25,ATCGAGCATG,1.03 ± 0.051

row,Sequence,switch fluorescence ratio
1,TGCCCGGGGT,1.05 ± 0.036
2,GAGGGGAAGC,0.985 ± 0.046
3,TTAAGTATTG,0.9956 ± 0.0079
4,GATCGGGAAC,1.06 ± 0.031
5,GGGAGAGCGG,0.9662 ± 0.0095
6,AGGGGAAGAA,1 ± 0.019
7,GTGGTATCAC,1 ± 0.011
8,ACTTGGTCCA,0.987 ± 0.016
9,AAAGGGTCGA,1.02 ± 0.03
10,TTGGGAAGGC,0.972 ± 0.035
11,TACGCCATAT,1.46 ± 0.18
12,TACGGTTCGC,1.02 ± 0.019
13,CGTGGCAGGG,0.984 ± 0.033
14,GATGTTAGGT,0.996 ± 0.023
15,TTGGATAGAG,0.996 ± 0.013
16,CATAGAAGCT,0.976 ± 0.048
17,CAGAAATTGG,1.013 ± 0.01
18,CGTATTATTG,1.01 ± 0.02
19,CAAGGGTCGG,0.996 ± 0.033
20,ACCGGCACAT,1.273 ± 0.0092
21,AATCTGCCCA,1.04 ± 0.015
22,CAACATTTTC,1.03 ± 0.054
23,TGGATATTTT,0.993 ± 0.044
24,TTTTGGTCCG,1.034 ± 0.0074
25,TCTTGCATAG,1.11 ± 0.025

row,Sequence,switch fluorescence ratio
1,TGGTTTTTAA,0.977 ± 0.052
2,GAGGGTACTG,1.032 ± 0.0053
3,GGGATATGGG,0.995 ± 0.045
4,GGAAGGAGGC,1.02 ± 0.088
5,CCAAAGTATA,1.166 ± 0.0013
6,TCATTTTAGT,0.99 ± 0.026
7,TAAGCTTTTT,1 ± 0.033
8,GGTAACGTTT,0.985 ± 0.027
9,TAGAGTAGTG,0.999 ± 0.05
10,GAAGTTTGTA,0.992 ± 0.022
11,ATTTGCTTTA,1.02 ± 0.012
12,ATAATGCAGC,0.988 ± 0.019
13,TTAGGGGTGT,1.01 ± 0.022
14,GGCATAAGTA,1.008 ± 0.0054
15,CGGACGAAAG,1.02 ± 0.048
16,TAAGTTATAG,1.02 ± 0.042
17,TGTAGAGCCA,1.03 ± 0.035
18,AAGGGATTGC,0.995 ± 0.053
19,TGGGAAGAGG,1.01 ± 0.026
20,CCGGCGGGAG,1.099 ± 0.0064
21,TCAAAGAATA,1.02 ± 0.029
22,AAGGAGGGTA,1.01 ± 0.038
23,TGGTTAAATC,1.03 ± 0.019
24,CAAATCAGGA,1 ± 0.038
25,ACAGGGGGCT,1.04 ± 0.051

row,Sequence,switch fluorescence ratio
1,TATACGTGGC,0.939 ± 0.03
2,GTAAAAGCGG,0.9788 ± 0.0082
3,TCCGCTTGA,1.58 ± 0.047
4,CGATAACGGG,1.07 ± 0.077
5,TATAGTGGGT,1.01 ± 0.067
6,TGCTAGTACC,1.054 ± 0.0036
7,CAGTAGTTAT,0.996 ± 0.011
8,TAGGGGATTG,1 ± 0.02
9,TCAAGTTAAG,0.9772 ± 0.0014
10,CTCGGCTGGT,1.01 ± 0.019
11,TGCAAGGGGT,1.14 ± 0.16
12,GTGGGACAGG,1.01 ± 0.015
13,GGTGTGAGTA,1.01 ± 0.016
14,CCTCGGACTT,1.57 ± 0.48
15,TATCGCAATG,3.63 ± 0.32
16,GACTGGCACG,1.03 ± 0.034
17,AGCTCTGCTA,1.02 ± 0.02
18,GGATAGGATT,1.025 ± 0.0054
19,GCGTCTGCGC,0.943 ± 0.085
20,TTGACGATGA,1.04 ± 0.025
21,AGTAAAAAAA,0.987 ± 0.033
22,TTTGTACAAC,1.01 ± 0.05
23,AATTACTTCT,1.042 ± 0.0026
24,TCACGGGTTC,1.03 ± 0.031
25,GTTCATCCAG,1.05 ± 0.017

row,Sequence,switch fluorescence ratio
1,TACCGGGGC,1.06 ± 0.033
2,CCAATTGCAT,1.12 ± 0.021
3,ACTGAGGAAA,1.01 ± 0.046
4,CTGTTGATGG,1 ± 0.027
5,TTTATAGTGC,1.01 ± 0.027
6,GGGAGTAGGC,0.731 ± 0.022
7,GCGTGAGGGG,1.03 ± 0.05
8,CAAATTTAAG,0.982 ± 0.028
9,GCCTTCGGAA,3.13 ± 0.065
10,TTGAGAGGAT,0.972 ± 0.021
11,CGGCAGGCTC,1.19 ± 0.053
12,ACTGTTTTGC,0.999 ± 0.019
13,TGGGTCAGGT,0.9994 ± 0.0084
14,TTATGGGTAA,1.03 ± 0.034
15,TGTTTAATTC,1.3 ± 0.39
16,TTTGAACGCT,1.06 ± 0.015
17,TCATGGGGCG,0.993 ± 0.012
18,GGGTAAATGC,1.01 ± 0.1
19,TCTCGGGATT,1 ± 0.013
20,AAATCGGCGG,0.991 ± 0.05
21,GGGCGTTGTG,1.05 ± 0.11
22,AACATGAGGA,1 ± 0.02
23,CCAAAAAAAG,1.03 ± 0.032
24,CATGCGAGGG,1 ± 0.035
25,TGTAGTTTGG,1.02 ± 0.032

row,Sequence,switch fluorescence ratio
1,TAACTCAAGA,0.9979 ± 0.0066
2,GGGGTGAAT,1.01 ± 0.021
3,AAGACGGGTT,1.02 ± 0.077
4,GTGGACTTTG,0.971 ± 0.053
5,CGGGAGCTGG,1.02 ± 0.023
6,TACGGGTGCT,1.16 ± 0.16
7,TTTATTTAAT,1.03 ± 0.035
8,TTACGGTGTC,1.02 ± 0.025
9,GATTGTGATG,0.9724 ± 0.0055
10,GGCAACCATA,1.02 ± 0.032
11,AATCGGTTAG,1 ± 0.03
12,GTTTGCCTCC,1.03 ± 0.021
13,GTTGTACGAA,1.19 ± 0.28
14,TGCGTCTGAT,1.001 ± 0.0082
15,AGAATGGTGA,0.96 ± 0.061
16,CAGTACCTAA,1.039 ± 0.0019
17,CGTAGTATAG,1.24 ± 0.017
18,GTTATTCATG,0.988 ± 0.018
19,AGGTTAAGCA,1.02 ± 0.0034
20,ACCAGGCAGC,1.12 ± 0.024
21,TATGGCCAGT,1.03 ± 0.033
22,GATATTGGGC,1.02 ± 0.024
23,TTTGATCGGA,0.965 ± 0.062
24,TTGATTGGAT,1 ± 0.014
25,TTTATATGGT,0.988 ± 0.028
